Measured values as given in patent US20160130347A1 (Hoffmann-La Roche, published 2016).

Legend:
[1] = biological target: human CD3 on T cells (human, UniProt P07766 23-126); assay: cell-based or functional assay
[2] = biological target: human MCSP on tumor cells (human, UniProt Q6UVK1 30-2322); assay: cell-based or functional assay
human MCSP on tumor cells, sequence (Q6UVK1 30-2322): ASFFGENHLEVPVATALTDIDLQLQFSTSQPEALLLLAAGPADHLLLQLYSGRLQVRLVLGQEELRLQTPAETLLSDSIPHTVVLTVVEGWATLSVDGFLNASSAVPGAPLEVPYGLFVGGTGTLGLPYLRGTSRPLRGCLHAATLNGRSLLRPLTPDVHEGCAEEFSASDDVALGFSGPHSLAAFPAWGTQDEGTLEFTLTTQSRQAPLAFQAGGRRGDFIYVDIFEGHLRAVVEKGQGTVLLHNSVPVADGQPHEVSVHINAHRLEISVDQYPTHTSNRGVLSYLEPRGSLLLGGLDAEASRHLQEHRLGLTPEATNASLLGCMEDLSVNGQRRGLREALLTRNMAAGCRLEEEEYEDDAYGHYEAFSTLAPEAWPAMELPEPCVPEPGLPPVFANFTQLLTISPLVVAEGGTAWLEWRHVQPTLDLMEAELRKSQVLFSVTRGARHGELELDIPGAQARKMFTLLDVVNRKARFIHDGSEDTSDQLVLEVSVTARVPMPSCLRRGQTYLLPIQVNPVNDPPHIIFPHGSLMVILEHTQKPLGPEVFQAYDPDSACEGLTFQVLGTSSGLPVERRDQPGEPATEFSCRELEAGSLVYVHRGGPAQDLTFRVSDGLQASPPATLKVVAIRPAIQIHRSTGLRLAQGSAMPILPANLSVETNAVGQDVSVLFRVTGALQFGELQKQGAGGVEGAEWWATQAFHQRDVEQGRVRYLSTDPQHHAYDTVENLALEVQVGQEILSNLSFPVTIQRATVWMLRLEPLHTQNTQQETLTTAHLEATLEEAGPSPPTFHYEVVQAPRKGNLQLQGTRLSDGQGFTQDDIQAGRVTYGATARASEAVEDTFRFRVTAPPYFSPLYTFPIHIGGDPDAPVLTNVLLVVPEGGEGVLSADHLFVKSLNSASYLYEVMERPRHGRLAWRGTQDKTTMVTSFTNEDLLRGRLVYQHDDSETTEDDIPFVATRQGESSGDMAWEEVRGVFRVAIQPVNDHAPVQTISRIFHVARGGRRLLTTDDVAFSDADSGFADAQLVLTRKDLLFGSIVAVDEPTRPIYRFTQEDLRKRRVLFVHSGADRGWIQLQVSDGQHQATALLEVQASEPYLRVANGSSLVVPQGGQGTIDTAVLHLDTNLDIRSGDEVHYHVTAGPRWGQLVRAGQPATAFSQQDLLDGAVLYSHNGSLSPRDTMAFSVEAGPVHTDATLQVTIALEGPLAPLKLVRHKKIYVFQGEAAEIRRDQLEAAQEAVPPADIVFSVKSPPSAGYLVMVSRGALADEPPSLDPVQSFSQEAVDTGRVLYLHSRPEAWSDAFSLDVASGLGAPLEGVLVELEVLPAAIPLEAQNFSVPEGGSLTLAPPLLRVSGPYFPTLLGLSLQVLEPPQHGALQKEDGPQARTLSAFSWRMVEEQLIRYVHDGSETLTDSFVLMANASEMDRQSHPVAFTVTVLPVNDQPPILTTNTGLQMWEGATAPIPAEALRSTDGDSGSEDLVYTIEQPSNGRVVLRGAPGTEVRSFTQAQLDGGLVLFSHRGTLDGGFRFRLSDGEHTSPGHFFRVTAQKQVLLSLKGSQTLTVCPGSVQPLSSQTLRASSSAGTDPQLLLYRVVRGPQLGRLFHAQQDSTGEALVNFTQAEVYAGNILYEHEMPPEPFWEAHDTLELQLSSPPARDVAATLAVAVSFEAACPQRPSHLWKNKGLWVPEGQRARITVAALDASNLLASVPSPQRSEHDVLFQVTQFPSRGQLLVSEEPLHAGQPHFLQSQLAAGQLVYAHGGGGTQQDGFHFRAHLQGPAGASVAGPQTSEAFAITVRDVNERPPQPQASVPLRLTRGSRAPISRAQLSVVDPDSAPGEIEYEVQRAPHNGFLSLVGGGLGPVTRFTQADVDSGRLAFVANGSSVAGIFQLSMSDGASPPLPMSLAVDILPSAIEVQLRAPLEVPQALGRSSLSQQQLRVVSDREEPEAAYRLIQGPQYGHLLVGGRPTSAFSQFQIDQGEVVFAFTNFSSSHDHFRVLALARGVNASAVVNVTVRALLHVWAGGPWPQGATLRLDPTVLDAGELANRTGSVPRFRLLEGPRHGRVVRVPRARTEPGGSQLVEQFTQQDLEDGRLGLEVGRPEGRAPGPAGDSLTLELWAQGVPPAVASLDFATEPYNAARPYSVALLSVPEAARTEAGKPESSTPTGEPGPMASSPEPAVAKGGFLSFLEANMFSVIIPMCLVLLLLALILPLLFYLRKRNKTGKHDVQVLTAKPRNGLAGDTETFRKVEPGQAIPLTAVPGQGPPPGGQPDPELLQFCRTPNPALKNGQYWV

human CD3 on T cells, sequence (P07766 23-126 limits assumed): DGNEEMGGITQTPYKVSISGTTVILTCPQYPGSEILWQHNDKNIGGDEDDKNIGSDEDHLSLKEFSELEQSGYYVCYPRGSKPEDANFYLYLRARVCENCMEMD

B1: (scFv)2 (antiMCSP/anti huCD3e) (bispecific antibody)
scFv: DIVLTQSPSSLSASLGDRVTISCSASQGIRNYLNWYQQRPDGTVKLLIYYTSSLHSGVPSRFSGSGSGTDYSLTISNLEPEDIATYYCQQYSKLPWTFGGGTKLEIKGGGGSGGGGSGGGGSEVQLQESGPGLVKPSQSLSLTCSVTGYSITSGYYWNWIRQFPGNKLEWMGYITYDGSNNYNPSLKNRISITRDTSKNQFFLKLNSVTTEDTATYYCADFDYWGQGTTLTVSSGGGGSEVQLVESGGGLVQPGGSLRLSCAASGYSFTGYTMNWVRQAPGKGLEWVALINPYKGVSTYNQKFKDRFTISVDKSKNTAYLQMNSLRAEDTAVYYCARSGYYGDSDWYFDVWGQGTLVTVSSVEGGSGGSGGSGGSGGVDDIQMTQSPSSLSASVGDRVTITCRASQDIRNYLNWYQQKPGKAPKLLIYYTSRLESGVPSRFSGSGSGTDYTLTISSLQPEDFATYYCQQGNTLPWTFGQGTKVEIKHHHHHH
EC50 of killing (LDH release) of MV-3 cells, human PBMCs, E:T 10:1, ~24 h [1]: 57.1 pM
EC50 of killing (LDH release) of MV-3 cells, human PBMCs, E:T 10:1, ~24 h [2]: 57.1 pM
